Laboratory results as given in paper PMC3711430.

Assays:
[1] = biological target: Xenopus FANCI (Xenopus laevis (endogenous in egg extracts)); assay: co-depletion by immunodepletion; DNA-free Xenopus S-phase egg extracts; FANCD2 or FANCI antibody coupled to Sepharose 4B beads, 60 min on ice, one to two rounds; depleted extracts analysed by immunoblot
[2] = biological target: Xenopus FANCD2 (Xenopus laevis (endogenous in egg extracts)); assay: as above

percent co-depleted [1]	percent co-depleted [2]	Substance
80%		Xenopus FANCD2 (natural protein)
	80%	Xenopus FANCI (natural protein)
